In patent US5939263:

Target: murine neuropeptide Y Yx receptor (murine)
Assay: displacement of ^125 I-PYY (90 pM) from membranes of COS-7 cells transfected with the murine NPY Yx receptor

Row | IC50 [nM] | Substance
1 | 9 | Leu^31, Pro^34 !NPY (peptide)
2 | 134 | NPY(13-36) (peptide)
3 | 14 | peptide YY

Second part, the substance before the results:

Row | Substance | IC50 [nM]
4 | NPY(2-36) (peptide) | 16
5 | Neuropeptide Y | 6
